# Data from publication PMC2686699, “The interaction between the measles virus nucleoprotein and the Interferon Regulator Factor 3 relies on a specific cellular environment” (Virology Journal, 2009).
# B1: IRF-3 RD (regulatory domain of IRF-3, residues 175-427, N-terminal hexahistidine tag; IRF-3 RDHN) (domain or fragment, human, UniProt Q14653 175-427, looked up)
# chain: SLDNPTPFPNLGPSENPLKRLLVPGEEWEFEVTAFYRGRQVFQQTISCPEGLRLVGSEVGDRTLPGWPVTLPDPGMSLTDRGVMSYVRHVLSCLGGGLALWRAGQWLWAQRLGHCHTYWAVSEELLPNSGHGPDGEVPKDKEGGVFDLGPFIVDLITFTEGSGRSPRYALWFCVGESWPQDQPWTKRLVMVKVVPTCLRALVEMARVGGASSLENTVDLHISNSHPLSLTSDQYKAYLQDLVEGMDFQGPGES
# notes: Human IRF-3, regulatory domain, residues 175-427; Dimer or monomer according to the buffer (monomer in buffers C and D); Also made uniformly 15N-labelled for NMR; source: E. coli Rosetta [DE3], purified (Talon IMAC, Hi-Trap Q, Superdex 200); not shown: His6, N-terminal, kept
# Biological target: the molecule itself
# Assay: SEC-MALS; data not shown; purified IRF-3 RD in various buffers, including 10 mM sodium phosphate pH 7 or buffer A (50 mM sodium phosphate pH 8, 300 mM NaCl, 10 mM imidazole); the method is told only in general (SEC-MALS in various buffers)
protein,measurement,value
B1,stoichiometry N,2
